Experimental data taken from PMC2885798.

Assays:
[1] = biological target: nesprin-1α fragment SLR2-7 (full-length nesprin-1α minus the transmembrane domain) (human); experiment: dynamic light scattering
[2] = biological target: nesprin-1α fragment SLR2-7ΔAD (SLR2-7 with the adaptive domain deleted) (human); experiment: dynamic light scattering

Substance	stoichiometry N [1]	stoichiometry N [2]
nesprin-1α fragment SLR2-7 (full-length nesprin-1α minus the transmembrane domain) (domain or fragment)	2	–
nesprin-1α fragment SLR2-7ΔAD (SLR2-7 with the adaptive domain deleted) (domain or fragment)	–	2
